Experimental findings from patent US20080286819A1 are described below.

Where only a bound is given, the exact number is not on record here.

Assay [1] addresses Human soluble FcγRIIB (human) (UniProt P31994). In words: SPR, soluble human Fc-receptor. Background: Surface plasmon resonance follows binding to a sensor surface in real time, without labels.
Assay [2] concerns the target Human soluble FcγRIIA^131H (human) (UniProt P12318). In words: SPR, soluble human Fc-receptor.
For assay [3], the target named is Human soluble FcγRIIIA^158F (human) (UniProt P08637). Put plainly: SPR, soluble human Fc-receptor.
UniProt P08637, sequence (P08637 17-208): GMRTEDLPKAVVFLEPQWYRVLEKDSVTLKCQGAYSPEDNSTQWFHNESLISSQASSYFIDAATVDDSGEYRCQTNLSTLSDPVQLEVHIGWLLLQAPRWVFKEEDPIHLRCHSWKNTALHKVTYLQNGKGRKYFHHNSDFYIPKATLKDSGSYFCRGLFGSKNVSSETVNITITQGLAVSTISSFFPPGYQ
For assay [4], the target named is Human soluble FcγRIIA^131H (human) (UniProt P12318). In words: ratio of SPR affinities; reference human FcγRIIB.
The target of assay [5] is Human soluble FcγRIIIA^158F (human) (UniProt P08637). Put plainly: ratio of SPR affinities; reference human FcγRIIB.
Assay [6] addresses Mouse soluble FcγRIV (mouse). In words: SPR (Biacore), antibody immobilized; + = detectable but very low binding.
For assay [7], the target named is Mouse soluble FcγRI (mouse) (UniProt P26151). In words: SPR (Biacore), antibody immobilized, soluble FcγR injected.
UniProt P26151, sequence (P26151 25-297): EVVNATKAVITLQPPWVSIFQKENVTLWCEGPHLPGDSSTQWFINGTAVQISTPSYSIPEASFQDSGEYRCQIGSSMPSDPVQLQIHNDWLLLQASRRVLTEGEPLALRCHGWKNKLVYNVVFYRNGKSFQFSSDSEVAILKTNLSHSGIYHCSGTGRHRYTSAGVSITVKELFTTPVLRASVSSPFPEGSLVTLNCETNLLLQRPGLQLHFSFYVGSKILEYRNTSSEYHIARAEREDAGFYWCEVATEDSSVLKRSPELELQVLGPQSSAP
The target in assay [8] is Human soluble FcγRIIB (human) (UniProt P31994). The assay is described as above.
Assay [9] deals with Human soluble FcγRIIA^131R (human) (UniProt P12318). The assay is described as above.
For assay [10], the target named is Human soluble FcγRIIA^131H (human) (UniProt P12318). Described as above.
Assay [11] has as its target Mouse soluble FcγRIIB (mouse) (UniProt P08101). The assay is described as above.
UniProt P08101, sequence (P08101 30-210): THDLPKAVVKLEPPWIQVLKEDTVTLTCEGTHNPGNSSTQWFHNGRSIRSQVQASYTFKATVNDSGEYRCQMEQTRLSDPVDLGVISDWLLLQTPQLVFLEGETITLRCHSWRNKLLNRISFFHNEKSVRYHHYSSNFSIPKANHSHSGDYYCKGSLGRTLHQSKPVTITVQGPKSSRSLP
In assay [12] the target is Human soluble FcγRIIIA^158F (human) (UniProt P08637). The assay is described as above.
Assay [13] has as its target Mouse soluble FcγRIII (mouse) (UniProt P08508). The description is as above.
UniProt P08508, sequence (P08508 31-215): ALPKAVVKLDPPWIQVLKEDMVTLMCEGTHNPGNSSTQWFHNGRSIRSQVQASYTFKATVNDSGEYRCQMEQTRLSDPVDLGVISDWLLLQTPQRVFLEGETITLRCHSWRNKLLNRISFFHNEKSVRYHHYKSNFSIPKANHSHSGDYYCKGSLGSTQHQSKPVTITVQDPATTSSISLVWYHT
The target of assay [14] is Mouse soluble FcγRIV (mouse). The description is as above.
Assay [15] addresses Mouse soluble FcγRIV (mouse). In words: ratio of SPR affinities; reference mouse FcγRIIB.
In assay [16] the target is Mouse soluble FcγRIV (mouse). In words: SPR; reference mouse FcγRIIB.
Assay [17] has as its target Mouse soluble FcγRIIB (mouse) (UniProt P08101). In words: SPR; reference mouse FcγRIII.
Assay [18] has as its target Human soluble FcγRIIIA^158F (human) (UniProt P08637). Put plainly: SPR (Biacore), antibody immobilized; + = detectable but very low binding.
Assay [19] concerns the target Mouse soluble FcγRIII (mouse) (UniProt P08508). Put plainly: ratio of SPR affinities; reference mouse FcγRIIB.
Assay [20] has the same target. Put plainly: SPR (Biacore), antibody immobilized; + = detectable but very low binding.
For assay [21], the target named is Human soluble FcγRIIA^131R (human) (UniProt P12318). Described as above.
The target in assay [22] is Human soluble FcγRIIA^131H (human) (UniProt P12318). Described as above.
Assay [23] concerns the target Mouse soluble FcγRIIB (mouse) (UniProt P08101). Described as above.
The target in assay [24] is Human soluble FcγRIIB (human) (UniProt P31994). Put plainly: SPR; reference human FcγRIIIA and FcγRIIA.

UniProt P31994, sequence (P31994 43-217): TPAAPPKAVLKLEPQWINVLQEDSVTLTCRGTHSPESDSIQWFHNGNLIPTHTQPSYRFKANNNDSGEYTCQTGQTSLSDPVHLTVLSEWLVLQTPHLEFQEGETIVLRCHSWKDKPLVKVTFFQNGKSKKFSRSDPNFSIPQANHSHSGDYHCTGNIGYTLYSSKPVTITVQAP

For orientation: Kd means the concentration at which binding is half-saturated. The low end stands for higher affinity, the high end for lower affinity. “FITC-IgG2-Fucose (human IgG2 Fc-switch variant of the 4-4-20 antibody lacking fucose)”: the values for the Ka in assay [1], in [2] and in assay [3] were 25400 M⁻¹, 135000 M⁻¹ and 144000 M⁻¹, respectively. The dissociation constant (Kd) in assay [1] was determined as 39.4 µM; in assay [2], 7.4 µM; in [3], 6.93 µM. Besides, the A/I ratio IIA/IIB (KA for FcγRIIA over KA for FcγRIIB) in assay [4] was 5.31. The A/I ratio IIIA/IIB (KA for FcγRIIIA over KA for FcγRIIB) in assay [5] stood at 5.67.
With “hIgG3 (FITC-isotype switch variant) (antibody)”, the Ka in [6] is below 10000 M⁻¹; in assay [7], 1.2e+06 M⁻¹; in [8], 70000 M⁻¹; in assay [9], 240000 M⁻¹; in assay [10] it was 120000 M⁻¹; in [11], 83000 M⁻¹. The Ka in [12] was 180000 M⁻¹.
“mIgG2a (FITC-isotype switch variant) (antibody)”: the Ka in assay [7] came out at 1.8e+08 M⁻¹; in [13], 680000 M⁻¹; in [8], 160000 M⁻¹; in assay [9], 320000 M⁻¹; in assay [10] it was 170000 M⁻¹; in assay [11] it was 420000 M⁻¹. In addition, the Ka in assay [14] was 2.9e+07 M⁻¹.
For “mIgG2b (FITC-isotype switch variant) (antibody)”, the A/I (ratio of KA for the activating receptor FcγRIV to KA for the inhibitory FcγRIIB) in assay [15] was determined as 7. The Ka is 640000 M⁻¹ in assay [13]; 120000 M⁻¹ in assay [8]; 91000 M⁻¹ in assay [9]; 120000 M⁻¹ in [10]; 2.2e+06 M⁻¹ in assay [11]; 10000 M⁻¹ in assay [12]. In addition, in [14], the Ka amounted to 1.7e+07 M⁻¹. The substance also yielded a fold higher affinity than to FcγRIIB in assay [16] of 10 fold.
“mIgG1 (FITC-isotype switch variant) (antibody)” yielded a fold higher affinity than to FcγRIII in [17] of 10 fold. For the same substance, the Ka in assay [18] was below 10000 M⁻¹; in assay [13], 310000 M⁻¹; in [8], 100000 M⁻¹; in [9], 250000 M⁻¹; in assay [10] it was 40000 M⁻¹; in assay [11], 3.3e+06 M⁻¹. Also, the A/I (ratio of KA for the activating receptor FcγRIII to KA for the inhibitory FcγRIIB) in assay [19] came to 0.1.
“hIgG4 (FITC-isotype switch variant) (antibody)”: the Ka is below 10000 M⁻¹ in assay [20]; below 10000 M⁻¹ in assay [21]; below 10000 M⁻¹ in assay [22]; below 10000 M⁻¹ in [23]; below 10000 M⁻¹ in assay [6]; 72000 M⁻¹ in assay [7]. The Ka in assay [8] was 48000 M⁻¹. Moreover, in [24], the fold higher affinity than to FcγRIIIA and FcγRIIA was above 4.8 fold.
Turning to “hIgG2 (FITC-isotype switch variant, human Fc-switch variant of the 4-4-20 antibody)”, the Ka was below 10000 M⁻¹ in assay [20]; below 10000 M⁻¹ in assay [23]; below 10000 M⁻¹ in assay [18]; 21000 M⁻¹ in assay [9]; 120000 M⁻¹ in assay [10].
Consider “mIgG3 (FITC-isotype switch variant) (antibody)”, for which the Ka in [21], in [22] and in assay [18] was below 10000 M⁻¹ each time.
Take “FITC-IgG1-Fucose (human IgG1 Fc-switch variant of the 4-4-20 antibody lacking fucose)”: in assay [1], the Ka turned out to be 78100 M⁻¹ and the Kd worked out at 12.8 µM. In [3], this substance returned a Ka of 5.97e+06 M⁻¹ and a Kd of 0.168 µM.
“hIgG1 (FITC-isotype switch variant, human Fc-switch variant of the 4-4-20 antibody)”: the Ka stood at 3.8e+06 M⁻¹ in assay [7]; 35000 M⁻¹ in [13]; 270000 M⁻¹ in assay [9]; 380000 M⁻¹ in [10]; 200000 M⁻¹ in [11]; 430000 M⁻¹ in assay [12]. Besides, the Ka in assay [14] was 2.2e+06 M⁻¹.
